The target of one assay is T1, Ole1-Myc-Cub-LexA-VP16 (S. cerevisiae, UniProt P21147 1-510).
T1 construct: Ole1, Δ9 acyl-CoA (stearoyl-CoA) desaturase of S. cerevisiae; the endogenous chromosomal OLE1 gene, with the tag at its carboxyl end; The tag was put behind the chromosomal gene, so the whole protein is likely; also called Δ9 acyl-CoA desaturase Ole1; Ole1-Cub-LexA-VP16; not shown: Myc, C-terminal, kept; Cub-LexA-VP16, C-terminal, kept
T1 sequence (looked up): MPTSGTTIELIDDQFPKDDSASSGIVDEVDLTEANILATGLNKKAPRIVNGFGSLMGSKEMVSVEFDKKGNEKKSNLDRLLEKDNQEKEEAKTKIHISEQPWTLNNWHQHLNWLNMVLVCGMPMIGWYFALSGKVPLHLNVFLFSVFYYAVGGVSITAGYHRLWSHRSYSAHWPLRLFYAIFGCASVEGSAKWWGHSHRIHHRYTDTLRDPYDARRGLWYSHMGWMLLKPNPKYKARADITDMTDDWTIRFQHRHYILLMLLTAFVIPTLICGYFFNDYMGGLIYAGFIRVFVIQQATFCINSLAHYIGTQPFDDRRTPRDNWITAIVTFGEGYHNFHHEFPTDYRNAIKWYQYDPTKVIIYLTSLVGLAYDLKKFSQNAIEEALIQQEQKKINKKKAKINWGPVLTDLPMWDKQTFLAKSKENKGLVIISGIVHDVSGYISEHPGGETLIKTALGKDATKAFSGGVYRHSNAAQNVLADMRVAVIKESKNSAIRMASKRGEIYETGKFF
Nature of the assay: two-hybrid; integrated membrane yeast two-hybrid (split ubiquitin): Ole1-Myc-Cub-LexA-VP16 from the endogenous locus of strain YBG1 as bait, NubG fusions from plasmids as prey; growth on SD-W-H-A with 6 mM 3-aminotriazole and β-galactosidase activity of cell extracts.

For the next assay, the target named is T2, Slc1-Cub-LexA-VP16 (S. cerevisiae, UniProt P33333 1-303).
T2 construct: Slc1, lysophosphatidic acid acyltransferase of S. cerevisiae; The end of the tag is read from the order of the printed label; also called Slc1 bait (strain YBG2); pTMBV4-SLC1; not shown: Cub-LexA-VP16, C-terminal, kept
T2 sequence (looked up): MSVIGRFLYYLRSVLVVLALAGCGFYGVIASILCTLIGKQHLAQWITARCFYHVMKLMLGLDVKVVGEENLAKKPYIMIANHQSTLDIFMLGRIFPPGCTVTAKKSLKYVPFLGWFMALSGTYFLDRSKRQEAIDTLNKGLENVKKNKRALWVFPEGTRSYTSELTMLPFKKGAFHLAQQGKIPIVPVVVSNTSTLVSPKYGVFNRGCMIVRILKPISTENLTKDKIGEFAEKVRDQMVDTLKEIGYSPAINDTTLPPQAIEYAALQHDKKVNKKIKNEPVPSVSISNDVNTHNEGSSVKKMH
Nature of the assay: two-hybrid; membrane yeast two-hybrid (split ubiquitin): plasmid-borne Slc1-Cub-LexA-VP16 as bait and NubG fusions as prey in NMY51; growth on SD-W-L-H-A with 6 mM 3-aminotriazole and β-galactosidase activity of cell extracts. The note with it: partners not purified.

The values that follow come from article PMC10302205, “Saccharomyces cerevisiae Δ9-desaturase Ole1 forms a supercomplex with Slc1 and Dga1” (The Journal of Biological Chemistry, 2023).

B1: NubG-Dga1 (full-length NubG-Dga1 fusion) (enzyme, S. cerevisiae, UniProt Q08650 1-418, looked up)
chain: MSGTFNDIRRRKKEEGSPTAGITERHENKSLSSIDKREQTLKPQLESCCPLATPFERRLQTLAVAWHTSSFVLFSIFTLFAISTPALWVLAIPYMIYFFFDRSPATGEVVNRYSLRFRSLPIWKWYCDYFPISLIKTVNLKPTFTLSKNKRVNEKNYKIRLWPTKYSINLKSNSTIDYRNQECTGPTYLFGYHPHGIGALGAFGAFATEGCNYSKIFPGIPISLMTLVTQFHIPLYRDYLLALGISSVSRKNALRTLSKNQSICIVVGGARESLLSSTNGTQLILNKRKGFIKLAIQTGNINLVPVFAFGEVDCYNVLSTKKDSVLGKMQLWFKENFGFTIPIFYARGLFNYDFGLLPFRAPINVVVGRPIYVEKKITNPPDDVVNHFHDLYIAELKRLYYENREKYGVPDAELKIVG
notes: Dga1, diacylglycerol acyltransferase of S. cerevisiae; DGA1 amplified from W303 genomic DNA; 418 residues by the printed ranges; also called pNubG-DGA1; pADSL-NubG-DGA1; source: yeast two-hybrid fusion (split ubiquitin prey), from plasmid pADSL-NubG-DGA1 in S. cerevisiae; not shown: NubG, N-terminal, kept
Regarding B1, the β-galactosidase activity, fold over the negative control Alg5-NubG (fold over the negative control) in the assay with Ole1-Myc-Cub-LexA-VP16 came to 11. Also, the “β-galactosidase activity, fold over Alg5-NubG” value with Slc1-Cub-LexA-VP16 came to 17 fold over Alg5-NubG.

B2: NubG-Dga1KR (Dga1 K397A, R398A) (enzyme, S. cerevisiae, UniProt Q08650 1-418, looked up)
chain: MSGTFNDIRRRKKEEGSPTAGITERHENKSLSSIDKREQTLKPQLESCCPLATPFERRLQTLAVAWHTSSFVLFSIFTLFAISTPALWVLAIPYMIYFFFDRSPATGEVVNRYSLRFRSLPIWKWYCDYFPISLIKTVNLKPTFTLSKNKRVNEKNYKIRLWPTKYSINLKSNSTIDYRNQECTGPTYLFGYHPHGIGALGAFGAFATEGCNYSKIFPGIPISLMTLVTQFHIPLYRDYLLALGISSVSRKNALRTLSKNQSICIVVGGARESLLSSTNGTQLILNKRKGFIKLAIQTGNINLVPVFAFGEVDCYNVLSTKKDSVLGKMQLWFKENFGFTIPIFYARGLFNYDFGLLPFRAPINVVVGRPIYVEKKITNPPDDVVNHFHDLYIAELAALYYENREKYGVPDAELKIVG
notes: Dga1 of S. cerevisiae, charged-to-alanine mutant made in pADSL-NubG-DGA1 (the full-length fusion); source: yeast two-hybrid fusion (split ubiquitin prey), synthetic DNA fragment assembled into pADSL-NubG-DGA1, in S. cerevisiae; not shown: NubG, N-terminal, kept
In the case of B2, the “β-galactosidase activity, % of wildtype Dga1” value in the assay with Ole1-Myc-Cub-LexA-VP16 (partners not purified) was ~60 % of wildtype Dga1.

B3: NubG-Dga1DEK (Dga1 D411A, E413A, K415A) (enzyme, S. cerevisiae, UniProt Q08650 1-418, looked up)
chain: MSGTFNDIRRRKKEEGSPTAGITERHENKSLSSIDKREQTLKPQLESCCPLATPFERRLQTLAVAWHTSSFVLFSIFTLFAISTPALWVLAIPYMIYFFFDRSPATGEVVNRYSLRFRSLPIWKWYCDYFPISLIKTVNLKPTFTLSKNKRVNEKNYKIRLWPTKYSINLKSNSTIDYRNQECTGPTYLFGYHPHGIGALGAFGAFATEGCNYSKIFPGIPISLMTLVTQFHIPLYRDYLLALGISSVSRKNALRTLSKNQSICIVVGGARESLLSSTNGTQLILNKRKGFIKLAIQTGNINLVPVFAFGEVDCYNVLSTKKDSVLGKMQLWFKENFGFTIPIFYARGLFNYDFGLLPFRAPINVVVGRPIYVEKKITNPPDDVVNHFHDLYIAELKRLYYENREKYGVPAAALAIVG
notes: as for B2
As for B3, the “β-galactosidase activity, % of wildtype Dga1” value with Ole1-Myc-Cub-LexA-VP16 (partners not purified) is ~60 % of wildtype Dga1.

B4: NubG-Slc1 (enzyme, S. cerevisiae, UniProt P33333 1-303, looked up)
chain: MSVIGRFLYYLRSVLVVLALAGCGFYGVIASILCTLIGKQHLAQWITARCFYHVMKLMLGLDVKVVGEENLAKKPYIMIANHQSTLDIFMLGRIFPPGCTVTAKKSLKYVPFLGWFMALSGTYFLDRSKRQEAIDTLNKGLENVKKNKRALWVFPEGTRSYTSELTMLPFKKGAFHLAQQGKIPIVPVVVSNTSTLVSPKYGVFNRGCMIVRILKPISTENLTKDKIGEFAEKVRDQMVDTLKEIGYSPAINDTTLPPQAIEYAALQHDKKVNKKIKNEPVPSVSISNDVNTHNEGSSVKKMH
notes: Slc1, lysophosphatidic acid acyltransferase of S. cerevisiae; 'the SLC1 open reading frame was amplified from S. cerevisiae genomic DNA'; also called pADSL-NubG-SLC1; source: yeast two-hybrid fusion (split ubiquitin prey), from plasmid pADSL-NubG-SLC1 in S. cerevisiae; not shown: NubG, N-terminal, kept
Regarding B4, the “β-galactosidase activity, fold over the negative control Alg5-NubG” value with Ole1-Myc-Cub-LexA-VP16 (partners not purified) is 9 fold over the negative control.

B5: NubG-Sct1 (enzyme, S. cerevisiae, UniProt P32784 1-759, looked up)
chain: MPAPKLTEKFASSKSTQKTTNYSSIEAKSVKTSADQAYIYQEPSATKKILYSIATWLLYNIFHCFFREIRGRGSFKVPQQGPVIFVAAPHANQFVDPVILMGEVKKSVNRRVSFLIAESSLKQPPIGFLASFFMAIGVVRPQDNLKPAEGTIRVDPTDYKRVIGHDTHFLTDCMPKGLIGLPKSMGFGEIQSIESDTSLTLRKEFKMAKPEIKTALLTGTTYKYAAKVDQSCVYHRVFEHLAHNNCIGIFPEGGSHDRTNLLPLKAGVAIMALGCMDKHPDVNVKIVPCGMNYFHPHKFRSRAVVEFGDPIEIPKELVAKYHNPETNRDAVKELLDTISKGLQSVTVTCSDYETLMVVQTIRRLYMTQFSTKLPLPLIVEMNRRMVKGYEFYRNDPKIADLTKDIMAYNAALRHYNLPDHLVEEAKVNFAKNLGLVFFRSIGLCILFSLAMPGIIMFSPVFILAKRISQEKARTALSKSTVKIKANDVIATWKILIGMGFAPLLYIFWSVLITYYLRHKPWNKIYVFSGSYISCVIVTYSALIVGDIGMDGFKSLRPLVLSLTSPKGLQKLQKDRRNLAERIIEVVNNFGSELFPDFDSAALREEFDVIDEEEEDRKTSELNRRKMLRKQKIKRQEKDSSSPIISQRDNHDAYEHHNQDSDGVSLVNSDNSLSNIPLFSSTFHRKSESSLASTSVAPSSSSEFEVENEILEEKNGLASKIAQAVLNKRIGENTAREEEEEEEEEEEEEEEEEEGKEGDA
notes: Sct1, glycerophosphate acyltransferase of S. cerevisiae; also called pNubG-SCT1; pADSL-NubG-SCT1; source: yeast two-hybrid fusion (split ubiquitin prey), from plasmid pADSL-NubG-SCT1 in S. cerevisiae; not shown: NubG, N-terminal, kept
Turning to B5, the β-galactosidase activity, fold of the negative control Alg5-NubG (fold of the negative control) with Ole1-Myc-Cub-LexA-VP16 is 2. In addition, the “β-galactosidase activity, fold of the negative control” value in the assay with Slc1-Cub-LexA-VP16 is 3 fold of the negative control.

B6: NubG-Gpt2 (enzyme, S. cerevisiae, UniProt P36148 1-743, looked up)
chain: MSAPAADHNAAKPIPHVPQASRRYKNSYNGFVYNIHTWLYDVSVFLFNILFTIFFREIKVRGAYNVPEVGVPTILVCAPHANQFIDPALVMSQTRLLKTSAGKSRSRMPCFVTAESSFKKRFISFFGHAMGGIPVPRIQDNLKPVDENLEIYAPDLKNHPEIIKGRSKNPQTTPVNFTKRFSAKSLLGLPDYLSNAQIKEIPDDETIILSSPFRTSKSKVVELLTNGTNFKYAEKIDNTETFQSVFDHLHTKGCVGIFPEGGSHDRPSLLPIKAGVAIMALGAVAADPTMKVAVVPCGLHYFHRNKFRSRAVLEYGEPIVVDGKYGEMYKDSPRETVSKLLKKITNSLFSVTENAPDYDTLMVIQAARRLYQPVKVRLPLPAIVEINRRLLFGYSKFKDDPRIIHLKKLVYDYNRKLDSVGLKDHQVMQLKTTKLEALRCFVTLIVRLIKFSVFAILSLPGSILFTPIFIICRVYSEKKAKEGLKKSLVKIKGTDLLATWKLIVALILAPILYVTYSILLIILARKQHYCRIWVPSNNAFIQFVYFYALLVFTTYSSLKTGEIGVDLFKSLRPLFVSIVYPGKKIEEIQTTRKNLSLELTAVCNDLGPLVFPDYDKLATEIFSKRDGYDVSSDAESSISRMSVQSRSRSSSIHSIGSLASNALSRVNSRGSLTDIPIFSDAKQGQWKSEGETSEDEDEFDEKNPAIVQTARSSDLNKENSRNTNISSKIASLVRQKREHEKKE
notes: Gpt2, glycerophosphate acyltransferase of S. cerevisiae; also called pNubG-GPT2; pADSL-NubG-GPT2; source: yeast two-hybrid fusion (split ubiquitin prey), from plasmid pADSL-NubG-GPT2 in S. cerevisiae; not shown: NubG, N-terminal, kept
Take B6: the “β-galactosidase activity, fold over Alg5-NubG” value with Slc1-Cub-LexA-VP16 was around 10 fold over Alg5-NubG.
